Assay results taken from publication doi:10.1101/293738 (bioRxiv, 2018).

Target: T1, LonS674A labelled with Atto-488 (LonS674A*) (Caulobacter crescentus, UniProt P0CAW0 1-799, S674A, Atto-488 on lysine residues (NHS ester))
T1 sequence (looked up): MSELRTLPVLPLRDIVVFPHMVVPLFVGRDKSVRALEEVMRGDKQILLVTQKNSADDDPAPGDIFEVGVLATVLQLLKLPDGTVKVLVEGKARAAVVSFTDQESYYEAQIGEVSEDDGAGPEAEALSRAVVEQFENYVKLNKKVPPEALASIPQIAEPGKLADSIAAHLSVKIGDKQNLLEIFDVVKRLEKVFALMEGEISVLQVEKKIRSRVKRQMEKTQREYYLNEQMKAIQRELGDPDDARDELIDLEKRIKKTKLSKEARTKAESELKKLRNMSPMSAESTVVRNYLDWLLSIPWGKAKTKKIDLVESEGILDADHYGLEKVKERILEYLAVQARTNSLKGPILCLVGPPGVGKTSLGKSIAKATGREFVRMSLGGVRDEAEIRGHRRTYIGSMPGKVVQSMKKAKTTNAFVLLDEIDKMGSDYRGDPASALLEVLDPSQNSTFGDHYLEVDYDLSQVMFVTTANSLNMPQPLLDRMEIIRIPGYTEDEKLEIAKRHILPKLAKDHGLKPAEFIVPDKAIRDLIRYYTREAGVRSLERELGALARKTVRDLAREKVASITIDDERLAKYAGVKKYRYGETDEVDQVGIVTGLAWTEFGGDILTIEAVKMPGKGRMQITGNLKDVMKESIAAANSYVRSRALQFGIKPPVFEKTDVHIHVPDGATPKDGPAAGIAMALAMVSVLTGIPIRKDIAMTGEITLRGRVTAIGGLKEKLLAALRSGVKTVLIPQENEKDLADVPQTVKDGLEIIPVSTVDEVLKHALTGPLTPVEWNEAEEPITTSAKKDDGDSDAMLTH
Assay: MST

B1: CcrM DNA methyltransferase (purified recombinant) (enzyme, Caulobacter crescentus, UniProt P0CAW2 1-358, looked up)
chain: MKFGPETIIHGDCIEQMNALPEKSVDLIFADPPYNLQLGGDLLRPDNSKVDAVDDHWDQFESFAAYDKFTREWLKAARRVLKDDGAIWVIGSYHNIFRVGVAVQDLGFWILNDIVWRKSNPMPNFKGTRFANAHETLIWASKSQNAKRYTFNYDALKMANDEVQMRSDWTIPLCTGEERIKGADGQKAHPTQKPEALLYRVILSTTKPGDVILDPFFGVGTTGAAAKRLGRKFIGIEREAEYLEHAKARIAKVVPIAPEDLDVMGSKRAEPRVPFGTIVEAGLLSPGDTLYCSKGTHVAKVRPDGSITVGDLSGSIHKIGALVQSAPACNGWTYWHFKTDAGLAPIDVLRAQVRAGMN
**Q.** B1 was tested. Which Kd did it give?
**A.** Its Kd is 1180 ± 85 nM.
